Patent US20260263614A1, “ANTIBODY DRUG CONJUGATES THAT BIND CDCP1 AND USES THEREOF” (Pheon Therapeutics Ltd, priority 2022, published 2026)

Columns and labels:
[1] = Comparative repeat-dose rat toxicity study; assay type: in vivo; conditions: DAR 8 on a Trastuzumab backbone, 20 or 60 mg/kg
[2] = Control incubation in buffer without S9; conditions: 5 μM ADC, pH 5.0
Protocol: Samples were analysed using LC/QE-orbitrap-MS.
The control incubations include each ADC without the addition of S9.

[3] = molecular target: T1, Papain (a Cathepsin B surrogate) (Carica papaya, UniProt P00784); conditions: reaction with papain, 24 hours and 96 hours
T1 sequence (P00784 134-345): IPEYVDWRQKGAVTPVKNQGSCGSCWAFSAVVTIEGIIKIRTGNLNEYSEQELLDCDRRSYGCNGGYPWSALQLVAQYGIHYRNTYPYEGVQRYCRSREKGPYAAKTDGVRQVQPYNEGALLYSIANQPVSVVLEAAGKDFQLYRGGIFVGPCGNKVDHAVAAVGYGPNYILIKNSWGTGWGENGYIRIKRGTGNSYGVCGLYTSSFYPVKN

[4] = comparison value of another MMAE ADC; cited from earlier work
[5] = molecular target: T2, huCDCP1(F30-T667 Q525)-8×His_T3 (human, UniProt Q9H5V8 30-667); test: SPR, recombinant CDCP1 ECD
T2 construct: The construct name gives the limits F30-T667 and Q525; also called recombinant CDCP1 ECD; CDCP1 ECD

[6] = molecular target: T2, huCDCP1(F30-T667 Q525)-8×His_T3; test: SPR, huCDCP1(F30-T667 Q525)-8×His_T3 as analyte; mAb lot T12
[7] = molecular target: T3, CDCP1 on antigen-positive cells (A427; CDCP1+ cells MDA-MB-468, PC3, DU145) (Homo sapiens (Human), UniProt Q9H5V8 30-836, On the FIG. 45 cell lines, part of the CDCP1 is proteolytically cleaved in the extracellular domain; the cleavage site is not stated. The uncleaved mature protein is given.); test: binding to CDCP1+ cells (cell line not given), % Maximum against log concentration, fitted curve
T3 construct: also called the antigen; antigen positive cell-line (A427)

[8] = test system: MDA-MB-468, PC3, DU145 and OVMZ-6 cells; test: Binding to cells after CDCP1 cleavage; conditions: mAbs binding membrane proximal or distal regions of CDCP1
From the text: FIG. 45E is an image of polyacrylamide gel binding assay. […] The sequences of the light chain variable region, heavy chain variable region, and CDRs (SEQ ID NOs: 15-22) of “Sequence 2” can be found in Table 2B.

## CC[C@@]1(O)C(=O)OCc2c1cc1n(c2=O)Cc2c-1nc1cc(F)c(C)c3c1c2[C@@H](NC(=O)[C@H](C)NC(=O)[C@@H](NC(=O)CCOCCOCCOCCOCCOCCOCCOCCOCCNC(=O)CCN1C(=O)C=CC1=O)C(C)C)CC3 [Compound 30]
[1]
  changes in hemopoietic system (red cell parameters): negligible effects
[1]; IV once every 3 weeks, two doses
  tolerability: well tolerated
[2]; Buffer without S9, 180 min
  LC/MS peak area of released payload (Exatecan; 4NH2-Exatecan; DXd; DM1, per ADC): 26,179
[2]; Buffer without S9, 360 min
  LC/MS peak area of released payload (Exatecan; 4NH2-Exatecan; DXd; DM1, per ADC): 51,267
[2]; Buffer without S9, 1440 min
  LC/MS peak area of released payload (Exatecan; 4NH2-Exatecan; DXd; DM1, per ADC): 59,452
[3]
  rate of cleavage: slower rate compared to other TOPO1 inhibitors having Cathepsin B cleavage mechanisms

## Adcetris
[4]
  ADC cyno t1/2: 45 to 72 h

B1: CDCP1 mAb (unconjugated IgG1 antibody targeted to CDCP1, Sequence 1) (antibody, V domains shown)
VH: EVQLLESGGGLVQPGGSLRLSCAASGFTFSNYAMNWVRQAPGKGLEWVSAISGGGGSTYYADSVKGRFTISRDNSKNTLYLQMNSLRAEDTAVYYCAKESITMVRGVMDYYGMDVWGQGTTVTVSS
VL: DIQLTQSPSFLSASVGDRVTITCRASQGISSYLAWYQQKPGKAPKLLIYAASTLQGGVPSRFSGSGSGTEFTLTISSLQPEDFATYYCQHLNRFPRTFGQGTKVEIK
notes: IgG1; also called unconjugated CDCP1-mAb; unconjugated CDCP1 mAb
[5]
  Kd: ~1000 pM
[6]
  Kd: 800 pM
  koff: 0.000468 s⁻¹
  kon: 584000 M⁻¹ s⁻¹
[7]
  EC50: 0.207 µg/mL

B2: mAbs-CDCPA1 Sequence 1: "mAbs-CDCPA1 Sequence 1 (proximal region)" antibody binding the membrane proximal region of CDCP1 (antibody, V domains shown)
VH: B1 VH
VL: B1 VL
[8]
  binding to cells with cleaved CDCP1: did not show significant difference in binding to CDCP1+ cells
